# Source: US20170022281A1 (AbbVie / Abbott, published 2017)
# Where a chain is given by its changes, count along the chain named.
# T1: cyno PRLR (Biacore antigen) (cyno, UniProt A0A2K5WXK1 25-234)
# T1 construct: also called cyPRLR
# T1 sequence: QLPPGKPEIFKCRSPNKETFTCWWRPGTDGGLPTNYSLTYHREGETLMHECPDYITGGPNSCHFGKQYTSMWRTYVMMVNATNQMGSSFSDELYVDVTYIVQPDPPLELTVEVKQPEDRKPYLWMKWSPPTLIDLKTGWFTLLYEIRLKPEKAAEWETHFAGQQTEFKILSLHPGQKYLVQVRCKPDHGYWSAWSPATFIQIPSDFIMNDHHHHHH
# T2: murine PRLR (Biacore antigen) (murine, UniProt Q08501 20-229, limits assumed)
# T2 construct: also called muPRLR
# T2 sequence (looked up): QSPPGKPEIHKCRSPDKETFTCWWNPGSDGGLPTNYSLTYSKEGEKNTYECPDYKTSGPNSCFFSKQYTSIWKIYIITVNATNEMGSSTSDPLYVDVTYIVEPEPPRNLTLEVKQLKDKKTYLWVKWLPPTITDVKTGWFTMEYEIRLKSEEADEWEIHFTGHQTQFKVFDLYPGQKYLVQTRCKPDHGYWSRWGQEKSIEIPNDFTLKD
# T3: human PRLR (Biacore antigen) (human, UniProt P16471 25-234, limits assumed)
# T3 construct: The construct injected over captured antibody is not described (a soluble form is likely); also called huPRLR
# T3 sequence: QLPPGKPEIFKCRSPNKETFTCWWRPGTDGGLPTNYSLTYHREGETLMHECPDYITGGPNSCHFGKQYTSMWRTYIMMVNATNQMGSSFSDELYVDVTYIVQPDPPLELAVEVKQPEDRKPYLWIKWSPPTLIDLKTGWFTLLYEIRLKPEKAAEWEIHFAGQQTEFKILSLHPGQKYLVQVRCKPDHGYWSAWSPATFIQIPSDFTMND
# T4: cyno PRLR ECD-his6 protein (cyno)
# T4 chain: T1 sequence
# T5: human PRLR ECD-Fc fusion protein (human, UniProt P16471 25-233)
# T5 construct: not shown: Fc region (captured by goat anti-human Fc)
# T5 sequence: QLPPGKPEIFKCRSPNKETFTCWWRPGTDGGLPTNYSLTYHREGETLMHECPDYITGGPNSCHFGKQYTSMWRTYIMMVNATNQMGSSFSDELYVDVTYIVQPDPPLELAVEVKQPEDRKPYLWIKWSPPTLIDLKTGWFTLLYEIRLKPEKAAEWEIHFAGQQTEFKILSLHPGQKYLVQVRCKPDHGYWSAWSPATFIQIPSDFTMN
# T6: human PRLR on cells (human, UniProt P16471 25-622)
# T6 construct: Endogenous on T47D cells, transfected in Baf3-hPRLR cells; also called hPRLR; T47D cells
# T6 sequence: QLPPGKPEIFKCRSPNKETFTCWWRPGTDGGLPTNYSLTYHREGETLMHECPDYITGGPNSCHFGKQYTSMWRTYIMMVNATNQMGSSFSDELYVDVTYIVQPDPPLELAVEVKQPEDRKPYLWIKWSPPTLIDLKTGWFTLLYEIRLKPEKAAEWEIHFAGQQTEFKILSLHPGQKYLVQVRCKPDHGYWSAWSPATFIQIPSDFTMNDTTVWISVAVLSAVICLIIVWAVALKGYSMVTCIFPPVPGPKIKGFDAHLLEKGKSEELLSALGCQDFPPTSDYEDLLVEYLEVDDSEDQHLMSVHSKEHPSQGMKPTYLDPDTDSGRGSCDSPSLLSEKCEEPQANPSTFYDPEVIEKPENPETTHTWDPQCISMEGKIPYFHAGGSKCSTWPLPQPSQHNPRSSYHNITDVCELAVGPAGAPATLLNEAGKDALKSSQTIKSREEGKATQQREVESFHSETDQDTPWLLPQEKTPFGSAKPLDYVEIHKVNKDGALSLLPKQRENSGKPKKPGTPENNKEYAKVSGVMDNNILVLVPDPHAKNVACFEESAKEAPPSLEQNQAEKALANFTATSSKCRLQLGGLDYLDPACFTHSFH
# B1: chAb7 (antibody, human IgG1, kappa, V domains shown)
# VH: QVQLQQPGAELVMPGTSVKLSCKASGYTFTSYWIHWVKQRPGQGLEWIGEIDPSDSYTNYNQKFKGKATLTVDRSSSTAYMQLSSLTSEDSAVYYCGRSFFTNWFAYWGQGTLVTVSA
# VL: DVVMTQTPLSLPVSLGDQASISCRSSQSLVHSNGNTYLHWYLQKPGQSPKLLIYKVSNRFSGVPDRFSGSGSGTDFTLKINRVEAEDLGVYFCSQSTHVPFTFGSGTKLEIKT
# notes: chimeric, murine variable and human G1/kappa constant regions
# B2: Ab6 (antibody, V domains shown)
# VH: QVQLQQPGAELVMPGSSVKLSCKASGYTFTTYWMHWVKQRPGQGLEWIGEIDPSDSYSNYNQKFKDKATLTVDKSSSTAYMQLSSLTSEDSAVYYCARNGGLGPAWFSYWGQGTLVTVSA
# VL: DIVMTQSQKFMSTTVGDRVSITCKASQYVGTAVAWYQQKPGQSPKLLIYSASNRYTGVPDRFTDSGSGTDFTLTISNLQSEDLADYFCQQYSSYPWTFGGGTKLEIK
# notes: murine monoclonal, isotype G1; also called murine Ab6
# B3: Ab5 (antibody, V domains shown)
# VH: QVQLQQPGAELVRPGTSVKLSCKASGYTFTSFWMHWVKQRPGQGLEWIGVIDPSDTYTNYNQKFKGKATLTVDTSSSTAYMQLSSLTSEDSAVYYCARGDYSNWFTYWGQGTLVTVSA
# VL: DVVMTQTPLSLPVSLGDQASISCRSSQRLVHSNGNTYLHWYLQKPGQSPKLLIYKVSNRFSGVPDRFSGSGSGTDFTLKISRVEAEDLGVYFCSQSTHVPWTFGGGTKLEIK
# notes: murine monoclonal, isotype G2a; also called murine Ab5
# B4: Ab7 (antibody, V domains shown)
# VH: B1 VH
# VL: B3 VL with R28S, S81N, W101F, G105S
# notes: murine monoclonal, isotype G1; also called murine Ab7
# B5: chAb8 (antibody, human IgG1, kappa, V domains shown)
# VH: EVQLQQSGPELVKPGASVKISCKASGYTFTDYNIHWVKQSHGKSLEWIGYIYPNNDGTGYNQKFKSKATLTVDNSSSTAYMEVRSLTSEDSAVYYCARGDGNYVGDMDYWGQGTSVTVSS
# VL: DIQMTQSPASLSASVGETVTITCRASENIYSYLAWYQQKQGKPPQLLVYNAKTLAEGVPSRFSGGGSGTQFSLKINSLQPEDFGSYYCQHHYATPFTFGSGTKLEIKT
# notes: as for B1
# B6: Ab12 (antibody, V domains shown)
# VH: DVQLQESGPGLVKPSQSLSLTCTVTGYSITSDYAWNWIRQFPGNKLEWMGYIGYSGRTSFNPSLKSRISITRDTSKNQFFLQLNSVTTEDTATYYCARGGFAMDYWGQGTSVTVSS
# VL: QIVLTQSPGIMSASPGEKVTMTCSASSSVTYMYWYQQKPRSSPKPWIYLTSNLASGVPARFSGSGSGTSYSLTISSMEAEDGATYYCQQWSSTPPLTFGGGTKLELN
# notes: murine monoclonal, isotype G2a; reported as PRLR agonist; also called murine Ab12
# B7: Ab10 (antibody, V domains shown)
# VH: EVQLHQSGPELVKPGASVKISCKASGYTFTDYNMHWMKQSHGKSLEWIGYFYPYNGGTGYNQEFKNKATLTVDISSSTAYMELRRLTSEDSAVYYCARGGWGIYYAMDYWGQGTSVTVSS
# VL: DIQMTQSPASLSASVGETVTITCRASENIYSYLTWYQQKQGKSPQLLVYNAKTLAEGVPSRFSGSGSGTQFSLKINSLQPEDFGSYHCQHHSVTPLTFGAGTKLELK
# notes: murine monoclonal, isotype G2a; also called murine Ab10
# B8: Ab11 (antibody, V domains shown)
# VH: EVKLVESGGGLVQPGGSLKLSCAASGFTFSDYYMFWVRQTPEKSLEWVAYISNGGGSTYYPDTVKGRFTISRDNAKNTLYLQMSRLKSEDTAMYYCSRQLFYYGSRGAMGYWGQGTSVTVSS
# VL: B3 VL with V3L, R28S, L29I, H39E, F92Y, S94F, S96G, T97S, W101F, G105S
# notes: murine monoclonal, isotype G1; also called murine Ab11
# B9: Ab13 (antibody, V domains shown)
# VH: B3 VH with T56S, Y57H, D73N, Q82H
# VL: B3 VL with L9F, R28S, G89E, V90L
# notes: murine monoclonal, isotype G2a; also called murine Ab13
# Molecular target: T1, cyno PRLR (Biacore antigen)
# Assay: SPR Biacore
# How it was run: (§1)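 Association rate, dissociation rate and dissociation constant were measured by surface plasmon resonance on a Biacore instrument. PRLR antigen was tested at 600 nM, 66.67 nM and 7.41 nM, a 3-point, 9-fold dilution series. Constants came from a 1:1 binding model fit (local Rmax, mass-transport term included) in Biacore T200 Evaluation Software.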
Binder,Kd [nM],koff [s⁻¹],kon [M⁻¹ s⁻¹]
B1,0.154,3.61e-05,235000
B2,0.807,0.00109,1.36e+06
B3,0.7,0.000235,336000
B4,0.127,3.29e-05,259000
B5,3.44,0.00177,514000

# Molecular target: T2, murine PRLR (Biacore antigen)
# Assay: SPR Biacore
# How it was run: as §1
Binder,Kd [nM],koff [s⁻¹],kon [M⁻¹ s⁻¹]
B1,44.9,0.00357,79500
B2,635,0.394,622000
B3,14.4,0.00291,202000
B4,41.7,0.0035,84000
B5,291,0.0538,185000

# Molecular target: T3, human PRLR (Biacore antigen)
# Assay: SPR Biacore
# How it was run: as §1
Binder,Kd [nM],koff [s⁻¹],kon [M⁻¹ s⁻¹]
B1,0.18,4.46e-05,248000
B6,6.6,0.00186,282000
B2,0.45,0.000576,1.28e+06
B7,1.41,0.000228,161000
B3,0.572,0.000203,355000
B4,0.153,4.27e-05,280000
B8,69.2,0.0211,305000
B9,0.997,0.000431,433000
B5,0.183,9.1e-05,496000

# Molecular target: T4, cyno PRLR ECD-his6 protein
# Assay: ELISA on ECD
# How it was run: (§2)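 EC50 values derive from fitted binding curves of antibody serial dilutions (1 h) on captured PRLR. Detection used an HRP-conjugated secondary (1 h), TMB development for 3–5 min, an H₂SO₄ stop and a 450 nm read, with all steps in Tween/PBS pH 7.4 buffer.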
row,Binder,EC50 [nM]
1,B1,0.118
2,B6,< 4
3,B3,0.095
4,B4,0.202
5,B8,0.153
6,B9,0.143
7,B5,0.191

# Molecular target: T5, human PRLR ECD-Fc fusion protein
# Assay: ELISA on ECD
# How it was run: as §2
row,Binder,EC50 [nM]
1,B1,0.151
2,B6,0.069
3,B2,0.086
4,B7,0.147
5,B3,0.071
6,B4,0.098
7,B8,0.093
8,B9,0.07
9,B5,0.08

# Molecular target: T6, human PRLR on cells
# Assay: FACS T47D 10 ug/mL
row,Binder,FACS GeoMean-neg
1,B6,1680
2,B2,1840
3,B7,2720
4,B3,1610
5,B4,2380
6,B8,2220
7,B9,1500

# Molecular target: T3, human PRLR (Biacore antigen)
# Assay: SPR simultaneous binding; PRLR held by surface mAb Ab30
# Experimental: (§3) Running buffer was HBS-EP+ (10 mM Hepes, pH7.4, 150 mM NaCl, 3 mM EDTA, 0.05% surfactant). Assay was performed at 12° C. using Biacore T200 and CM5 sensor chips with anti-human IgG (Pierce) amine-coupled in all 4 flow cells to ˜2000 RU.
# (§4) Separate test mAbs were captured in flowcells 2, 3 & 4 (flowcell 1 was reference, no test mAb). All 4 flowcells were then blocked by injection with isotype control mAb at 50 ug/ml. All 4 flowcells were then injected with antigen or buffer only (buffer only is for double referencing, done for each mAb pair individually). All 4 flowcells were then injected with 2nd test mAb at 10 ug/ml. All 4 flowcells were then regenerated with glycine, pH1.5.
row,Binder,"solution mAb binding, % of PRLR binding [%]"
1,B1,-1
2,B5,-1

# Molecular target: T3, human PRLR (Biacore antigen)
# Assay: SPR simultaneous binding; PRLR held by surface mAb Ab48
# Experimental: as §3, §4
row,Binder,"solution mAb binding, % of PRLR binding [%]"
1,B1,1
2,B5,-1

# Molecular target: T3, human PRLR (Biacore antigen)
# Assay: SPR simultaneous binding; PRLR held by surface mAb Ab49
# Experimental: as §3, §4
row,Binder,"solution mAb binding, % of PRLR binding [%]"
1,B1,2
2,B5,-1
